We go through one molecule from PMC10325834, “Characteristics of Mycobacterium tuberculosis PtpA interaction and activity on the alpha subunit of human mitochondrial trifunctional protein, a key enzyme of lipid metabolism” (Frontiers in Cellular and Infection Microbiology, 2023).

This test has as its target T1, human mitochondrial trifunctional protein (hTFP α/β) immunopurified from macrophages (human (endogenous in macrophages), UniProt P40939-1 37-763; P55084 34-474, phosphotyrosine: 21% of the immunopurified hTFP is phosphorylated on Tyr (sites not identified)).
T1 construct: also called immunopurified hTFP; hTFPα from macrophages; source: endogenous, macrophage extract; immunoprecipitated with anti-TFP monoclonal antibody (ab110302) on beads, eluted with 50 mM citrate pH 2.6
The test can be described thus: SPR. As to conditions: both partners purified.

T1 sequence (P40939 37-763, chain 1 of 2): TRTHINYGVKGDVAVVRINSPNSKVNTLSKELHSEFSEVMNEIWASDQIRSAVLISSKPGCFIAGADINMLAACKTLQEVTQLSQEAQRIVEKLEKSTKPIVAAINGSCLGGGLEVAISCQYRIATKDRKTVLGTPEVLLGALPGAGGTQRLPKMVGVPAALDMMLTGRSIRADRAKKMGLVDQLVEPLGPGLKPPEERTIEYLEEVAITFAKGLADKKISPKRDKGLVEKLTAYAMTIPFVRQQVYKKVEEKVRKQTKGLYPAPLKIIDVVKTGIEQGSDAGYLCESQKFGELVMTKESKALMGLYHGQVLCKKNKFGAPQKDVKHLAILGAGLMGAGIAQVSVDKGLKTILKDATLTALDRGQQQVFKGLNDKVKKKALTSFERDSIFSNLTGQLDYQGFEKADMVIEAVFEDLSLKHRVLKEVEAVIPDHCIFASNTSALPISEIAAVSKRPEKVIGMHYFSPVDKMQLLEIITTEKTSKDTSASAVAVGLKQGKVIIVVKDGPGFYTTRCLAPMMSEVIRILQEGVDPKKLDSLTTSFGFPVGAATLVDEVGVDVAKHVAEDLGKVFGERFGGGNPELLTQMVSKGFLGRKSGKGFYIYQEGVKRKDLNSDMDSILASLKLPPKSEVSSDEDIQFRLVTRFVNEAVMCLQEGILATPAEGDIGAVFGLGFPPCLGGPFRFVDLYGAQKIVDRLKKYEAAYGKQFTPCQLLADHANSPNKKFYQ
T1 sequence (P55084 34-474, chain 2 of 2): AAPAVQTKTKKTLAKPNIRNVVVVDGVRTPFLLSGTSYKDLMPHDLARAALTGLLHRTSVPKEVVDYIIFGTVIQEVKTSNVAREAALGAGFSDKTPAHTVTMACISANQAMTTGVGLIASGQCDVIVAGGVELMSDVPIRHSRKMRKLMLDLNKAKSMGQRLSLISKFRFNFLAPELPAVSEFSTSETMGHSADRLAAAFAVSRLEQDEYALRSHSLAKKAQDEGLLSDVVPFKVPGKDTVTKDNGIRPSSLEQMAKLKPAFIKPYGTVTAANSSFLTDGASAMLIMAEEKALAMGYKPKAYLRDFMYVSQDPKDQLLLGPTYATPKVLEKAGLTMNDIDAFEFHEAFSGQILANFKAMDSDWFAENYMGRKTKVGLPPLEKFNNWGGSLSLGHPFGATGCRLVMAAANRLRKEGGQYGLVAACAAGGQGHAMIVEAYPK

B1: Mycobacterium tuberculosis PtpA, recombinant wild type (enzyme)
chain: MSDPLHVTFVCTGNICRSPMAEKMFAQQLRHRGLGDAVRVTSAGTGNWHVGSCADERAAGVLRAHGYPTDHRAAQVGTEHLAADLLVALDRNHARLLRQLGVEAARVRMLRSFDPRSGTHALDVEDPYYGDHSDFEEVFAVIESALPGLHDWVDERLARNGPS
notes: also called rPtpA; PtpA-wt
B1: binding was put at a Kd of 310 nM.
